pIC50, pKd: −log10 of the molar value.
What was measured:
Assay in all cases: fluorescence polarisation
MBP-TbtD = target: MBP-TbtD
TbtF = target: TbtF
[1] = target: RRE of TbtF (residues 1–85)

| pIC50 (MBP-TbtD) | pIC50 (TbtF) | pKd [1] | Substance |
| --- | --- | --- | --- |
| 5.96 | 5.56 |  | TbtA M(−27)A (peptide) |
| 5.58 | 6.07 |  | TbtA P(−28)A (peptide) |
|  |  | 7.00 | synthetic TbtA leader peptide derivatized with fluorescein isothiocyanate (FITC) at the N-terminus |

— article PMC5148741
